T1: GFP-9S library array, motif 4 ND N98P;D124P (synthetic construct, N98P;D124P)
T1 chain: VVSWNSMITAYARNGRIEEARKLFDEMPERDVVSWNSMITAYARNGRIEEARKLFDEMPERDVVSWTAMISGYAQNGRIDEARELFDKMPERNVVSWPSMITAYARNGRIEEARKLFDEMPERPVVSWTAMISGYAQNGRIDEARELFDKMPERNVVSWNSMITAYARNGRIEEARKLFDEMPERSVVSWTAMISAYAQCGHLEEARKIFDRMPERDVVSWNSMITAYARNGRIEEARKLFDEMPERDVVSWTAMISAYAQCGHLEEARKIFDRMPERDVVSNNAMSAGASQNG

T2: GFP-9S library array, motif 4 ND N98G;D124K (synthetic construct, N98G;D124K)
T2 chain: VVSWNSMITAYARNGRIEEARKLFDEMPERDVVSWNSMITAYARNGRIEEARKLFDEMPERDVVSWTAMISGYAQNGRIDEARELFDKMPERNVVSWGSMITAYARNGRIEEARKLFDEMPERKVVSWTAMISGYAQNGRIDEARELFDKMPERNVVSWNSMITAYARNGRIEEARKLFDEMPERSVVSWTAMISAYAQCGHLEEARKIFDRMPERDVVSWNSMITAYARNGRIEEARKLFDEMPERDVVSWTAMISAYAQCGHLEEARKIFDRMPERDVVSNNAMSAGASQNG

T3: GFP-9S library array, motif 4 ND N98R;D124W (synthetic construct, N98R;D124W)
T3 chain: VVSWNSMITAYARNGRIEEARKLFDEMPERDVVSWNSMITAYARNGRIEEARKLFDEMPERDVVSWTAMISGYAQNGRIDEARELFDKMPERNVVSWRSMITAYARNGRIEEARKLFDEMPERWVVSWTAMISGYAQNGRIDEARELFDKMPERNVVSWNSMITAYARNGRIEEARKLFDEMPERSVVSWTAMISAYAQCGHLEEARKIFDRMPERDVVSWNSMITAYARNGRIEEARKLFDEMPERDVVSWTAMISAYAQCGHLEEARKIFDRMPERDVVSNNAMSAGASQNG

T4: GFP-9S library array, motif 4 ND N98S;D124N (synthetic construct, N98S;D124N)
T4 chain: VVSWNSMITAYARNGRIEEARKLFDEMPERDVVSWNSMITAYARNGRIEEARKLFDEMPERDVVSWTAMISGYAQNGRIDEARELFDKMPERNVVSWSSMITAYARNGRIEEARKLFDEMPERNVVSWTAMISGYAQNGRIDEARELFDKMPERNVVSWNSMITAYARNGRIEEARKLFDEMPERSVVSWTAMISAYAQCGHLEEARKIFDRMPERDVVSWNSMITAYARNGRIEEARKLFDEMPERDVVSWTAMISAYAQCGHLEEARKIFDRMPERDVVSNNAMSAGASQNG

T5: GFP-9S library array, motif 4 ND N98L;D124P (synthetic construct, N98L;D124P)
T5 chain: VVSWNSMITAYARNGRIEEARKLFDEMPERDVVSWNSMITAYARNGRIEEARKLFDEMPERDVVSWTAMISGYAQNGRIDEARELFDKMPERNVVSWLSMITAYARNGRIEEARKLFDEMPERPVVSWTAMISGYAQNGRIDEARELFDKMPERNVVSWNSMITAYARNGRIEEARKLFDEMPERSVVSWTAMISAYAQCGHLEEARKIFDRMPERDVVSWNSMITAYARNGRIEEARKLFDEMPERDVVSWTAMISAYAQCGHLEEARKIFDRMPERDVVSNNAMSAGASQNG


Tests used:
Experiment in all cases: high-throughput RNA pulldown from lysate on Ni-NTA beads; HRP: 50 mM Tris pH 8, 150 mM NaCl, 1 mM beta-mercaptoethanol, 50 ug/ml BSA, 3 ug/ml yeast RNA, 0.5% heparin; ITC and FP: Tris pH 8, 200 mM KCl, 5% glycerol; MST: 50 mM Tris pH 8, 200 mM NaCl, 1 mM DTT, BSA, heparin, 0.05% Tween 20
Settings in all cases: tags: N-terminal His-eGFP
[1] = molecular target: T1, GFP-9S library array, motif 4 ND …
[2] = molecular target: T2, GFP-9S library array, motif 4 ND …
[3] = molecular target: T3, GFP-9S library array, motif 4 ND …
[4] = molecular target: T4, GFP-9S library array, motif 4 ND …
[5] = molecular target: T5, GFP-9S library array, motif 4 ND …

| Binder | Kd ([1]; label: 5' Cy5) [nM] | Kd ([2]; label: 5' Cy5) [nM] | Kd ([3]; label: 5' Cy5) [nM] | Kd ([4]; label: 5' Cy5) [nM] | Kd ([5]; label: 5' Cy5) [nM] | Kd ([1]; label: 5' IRDye 800CW) [nM] | Kd ([2]; label: 5' IRDye 800CW) [nM] | Kd ([3]; label: 5' IRDye 800CW) [nM] | Kd ([4]; label: 5' IRDye 800CW) [nM] | Kd ([5]; label: 5' IRDye 800CW) [nM] |
| --- | --- | --- | --- | --- | --- | --- | --- | --- | --- | --- |
| AUUACACGUGA (ssRNA) [Cy5-rpoA] | 273 | 103 | 147 | 235 | 97.7 |  |  |  |  |  |
| AUUAUACGUGA (ssRNA) [IR-rpoA-U] |  |  |  |  |  | 561 | 59.7 | 337 | 272 | 145 |
| AUUAGACGUGA (ssRNA) [Cy5-rpoA-G] | 326 | 65.4 | 88.7 | 296 | 114 |  |  |  |  |  |
| AUUAAACGUGA (ssRNA) [IR-rpoA-A] |  |  |  |  |  | 1420 | 34.3 | 249 | 50.8 | 213 |
